This note sets out measurements from patent US7553821B2, “Methods for selectively modulating survivin apoptosis pathways” (Yale University, priority 2000, dated 2009).

Residues, ends and D or L forms follow the SMILES beside them. *: point of attachment. Cbz = O=C(OCc1ccccc1)*; CH2F = FC*

Test [1] has as its system HeLa cells. Description: Nuclear morphology of apoptosis (DAPI) in transfected HeLa cells. Particulars: for HeLa cell apoptosis induced by survivin(T34A), effect of co-transfected dominant negative caspase: co-transfection. The class given is cell-based. The source says:
HeLa cells transfected with GFP-vector (vector), GFP-survivin(T34A) (T34A), or GFP-caspase-9 (Met^1-Asp^330) (caspase-9), were scored morphologically for nuclear integrity by DAPI staining after 48-h. Arrows, nuclear fragmentation and chromatin condensation in GFP-expressing cells.
The experimental procedures are the same as in A. Data are the meaνSEM of four independent experiments.
HeLa cells were transfected with the various indicated combinations of GFP-constructs, with or without etoposide (10 μg/ml) or TNFα (10 ng/ml) plus cycloheximide (10 μg/ml), harvested after 48 h, and GFP-labeled cells were morphologically scored for nuclear fragmentation by DAPI staining, as described in FIG. 2B. DN, dominant negative. Data are the mea±SEM of four independent experiments.
Transfection experiments. For transient transfection, HeLa cells in C-6 tissue culture plates (Costar, Cambridge, Mass.) at ˜60-70% confluency, were incubated in 1 ml of serum-free OptiMEM medium (Life Technologies, Gaithersburg, Md.) for 20 min, and transfected with 2.5 μg of the various plasmid cDNAs plus 9 μl Lipofectamine (Life Technologies). After a 5 h incubation at 37° C., the mixture was aspirated and substituted with complete growth medium for 48-72 h. To generate stable YUSAC-2 transfectants, a survivin(T34A) cDNA was inserted into the HindIII-SpeI sites of the pTet-splice vector (Dr. D. Schatz, Yale University School of Medicine), downstream of the regulatory sequences of the Tet-resistance operon (TetO). YUSAC-2 cells were transfected with 0.8 μg pTet-T34A, 0.8 μg of the transactivation/selection plasmid ptTA-Neo and 5 μl Lipofectamine in 1 ml of OptiMem. Forty-eight h after transfection, cells were re-plated at low density in 15×150 mm plates in growth medium containing 1.5 mg/ml Geneticin (G418, Life Technologies), 2 mM sodium hydroxide and 0.5 μg/ml Tet (Sigma, St. Louis, Mo.) (selection medium). After a 3-week culture, ninety-six individual clones were screened for differential growth in the presence or absence of Tet. […] Flow cytometry. HeLa cells transfected with the various GFP constructs in the presence or in the absence of the broad-spectrum caspase inhibitor Z-VAD-fmk (20 μM) were harvested after 48-h (non-adherent and adherent cells), washed in PBS, pH 7.0, and fixed in cold 70% ethanol for 30 min on ice. After washes in PBS, cells (10×10^6/ml) were stained with 25 μg/ml propidium iodide (Sigma), 0.05% Triton X-100 and 100 μg/ml RNAse A (Boehringer Mannheim, Indianapolis, Ind.) for 45 min at 22° C. Gated GFP-expressing cells were analyzed for DNA content by flow cytometry on a FACSort (Becton Dickinson, San Jose, Calif.) using a Cell Quest software. In other experiments, F5-C4 cells were synchronized at the G1/S boundary by culture with 5-mM thymidine for 16 h at 37° C., in the presence or in the absence of Tet. At the end of the incubation, cells were released from the thymidine block, and harvested at 3-h intervals for DNA content analysis by propidium iodide staining and flow cytometry, or, alternatively, for caspase-9 processing by Western blotting (see below). TUNEL staining. Internucleosomal DNA fragmentation of F5.C4 cells in the presence or in the absence of Tet was carried out by end-labeling with terminal deoxynucleotidyl transferase (TdT) and peroxidase-conjugated anti-digoxigenin antibody using the ApopTag kit (Intergen, Purchase, N.Y.), as described previously (Grossman et al., 1999). Immunoprecipitation and Western blotting. Asynchronously growing or synchronized HeLa cells were lysed in 200 μl of lysis buffer containing 50 mM Tris, pH 7.5, 1% NP-40, 0.25% DOC, 150 mM NaCl, 1 mM PMSF, 10 μg/ml aprotinin, 10 μg/ml leupeptin, 10 μg/ml pepstatin, 1 mM Na3VO4, 20 mM NaF, 0.2 mM EGTA, 1 mM EDTA, pH 8.0, for 30 min at 4° C. Insoluble material was removed by centrifugation at 14,000 rpm for 15 min, and two-hundred μg of protein lysate was pre-absorbed with 25 μl of a 50:50 Protein A Sepharose slurry (Pharmacia) for 3 h at 4° C. with constant agitation. […]

Test [2] relates to HeLa cells. Description: DNA content by propidium iodide staining and flow cytometry in transfected HeLa cells. The class given is cell-based. Particulars: inhibitor 20 μM, 48 h. The protocol:
HeLa cells were transfected with GFP-survivin(T34A) in the presence or in the absence of 20 μM of the caspase inhibitor, Z-VAD-fmk. Gated GFP-expressing cells were analyzed 48 h after transfection for DNA content by propidium iodide staining and flow cytometry. The percentages of apoptotic cells with sub-G1 (hypodiploid) […] DNA content are indicated. Apoptotic HeLa cells in GFP-vector transfectants were 8%. Data are representative of one experiment out of at least three independent determinations.
Transfection experiments. For transient transfection, HeLa cells in C-6 tissue culture plates (Costar, Cambridge, Mass.) at ˜60-70% confluency, were incubated in 1 ml of serum-free OptiMEM medium (Life Technologies, Gaithersburg, Md.) for 20 min, and transfected with 2.5 μg of the various plasmid cDNAs plus 9 μl Lipofectamine (Life Technologies). After a 5 h incubation at 37° C., the mixture was aspirated and substituted with complete growth medium for 48-72 h. To generate stable YUSAC-2 transfectants, a survivin(T34A) cDNA was inserted into the HindIII-SpeI sites of the pTet-splice vector (Dr. D. Schatz, Yale University School of Medicine), downstream of the regulatory sequences of the Tet-resistance operon (TetO). […] Gated GFP-expressing cells were analyzed for DNA content by flow cytometry on a FACSort (Becton Dickinson, San Jose, Calif.) using a Cell Quest software. […]

On to “Leu^64ÕAla: another survivin point mutant in the Baculovirus IAP repeat (BIR), control [reference compound]”, for which the “ability to induce spontaneous apoptosis upon transient transfection” value in test [1] (survivin BIR domain mutants) is reported as “did not cause apoptosis”.
As for `COC(=O)C[C@H](NC(=O)[C@H](C)NC(=O)[C@@H](NC(=O)OCc1ccccc1)C(C)C)C(=O)CF` [Z-VAD-fmk, reference compound] (Cbz-Val-Ala-Asp(OMe)-CH2F), in test [2], the “effect on sub-G1 DNA content induced by GFP-survivin(T34A)” value is reported as “reversed”.

B1: caspase-9(C287A): caspase 9 dominant negative mutant (Cys287→Ala) (protein, UniProt P55211 1-416, looked up, variant C287A)
chain: MDEADRRLLRRCRLRLVEELQVDQLWDALLSRELFRPHMIEDIQRAGSGSRRDQARQLIIDLETRGSQALPLFISCLEDTGQDMLASFLRTNRQAAKLSKPTLENLTPVVLRPEIRKPEVLRPETPRPVDIGSGGFGDVGALESLRGNADLAYILSMEPCGHCLIINNVNFCRESGLRTRTGSNIDCEKLRRRFSSLHFMVEVKGDLTAKKMVLALLELAQQDHGALDCCVVVILSHGCQASHLQFPGAVYGTDGCPVSVEKIVNIFNGTSCPSLGGKPKLFFIQAAGGEQKDHGFEVASTSPEDESPGSNPEPDATPFQEGLRTFDQLDAISSLPTPSDIFVSYSTFPGFVSWRDPKSGSWYVETLDDIFEQWAHSEDLQSLLLRVANAVSVKGIYKQMPGCFNFLRKKLFFKTS
Regarding B1, the “HeLa cell apoptosis induced by survivin(T34A), effect of co-transfected dominant negative caspase” value in test [1] (48 h) was “reversed HeLa cell apoptosis induced by survivin(T34A) to background levels”. The “nuclear fragmentation and chromatin condensation induced by etoposide” value in test [1] (etoposide 10 μg/ml, 48 h) is reported as “inhibited”.

B2: caspase-8(C360S): caspase-8 dominant negative mutant obtained from Dr. V. Dixit (protein, UniProt Q14790 1-479, looked up, variant C360S)
chain: MDFSRNLYDIGEQLDSEDLASLKFLSLDYIPQRKQEPIKDALMLFQRLQEKRMLEESNLSFLKELLFRINRLDLLITYLNTRKEEMERELQTPGRAQISAYRVMLYQISEEVSRSELRSFKFLLQEEISKCKLDDDMNLLDIFIEMEKRVILGEGKLDILKRVCAQINKSLLKIINDYEEFSKERSSSLEGSPDEFSNGEELCGVMTISDSPREQDSESQTLDKVYQMKSKPRGYCLIINNHNFAKAREKVPKLHSIRDRNGTHLDAGALTTTFEELHFEIKPHDDCTVEQIYEILKIYQLMDHSNMDCFICCILSHGDKGIIYGTDGQEAPIYELTSQFTGLKCPSLAGKPKVFFIQASQGDNYQKGIPVETDSEEQPYLEMDLSSPQTRYIPDEADFLLGMATVNNCVSYRNPAEGTWYIQSLCQSLRERCPRGDDILTILTEVNYEVSNKDDKKNMGKQMPQPTFTLRKKLVFPSD
Consider B2, for which the “cell death induced by TNFα/cycloheximide” value in test [1] (TNFα 10 ng/ml plus cycloheximide 10 μg/ml, 48 h) was “completely inhibited”. Also, the “HeLa cell apoptosis induced by survivin(T34A), effect of co-transfected dominant negative caspase” value in test [1] (48 h) is recorded as “did not reduce apoptosis”.
